Source: publication PMC2910593 (PLoS Biology, 2010)
Values joined by “and” are separate entries in the source; they are usually repeats but may differ in a detail not shown here. Equal values may be shown once.

Tests used:
[1] = biological target: CaMKIIγ catalytic and regulatory domain (human) (UniProt Q13555); assay: ITC; VP-ITC, 10°C, 20 mM HEPES pH 7.5, 150 mM NaCl, 5 mM DTT, 1 mM CaCl2; Ca2+/CaM titrated into the kinase domains, or the peptide titrated into Ca2+/CaM; single binding site model
[2] = biological target: CaMKIIβ catalytic domain (human) (UniProt Q13554); assay: as above
[3] = biological target: CaMKIIα catalytic domain (human) (UniProt Q9UQM7); assay: as above
[4] = biological target: CaMKI catalytic domain (human) (UniProt Q8IU85); assay: as above
[5] = biological target: CaMKIV catalytic domain (human) (UniProt Q16566); assay: as above
[6] = biological target: CaMKIIα/Ca^2+/CaM complex (human) (UniProt Q9UQM7); assay: AUC; sedimentation velocity of the CaMKII/Ca2+/CaM complexes, 4°C, 10 mM HEPES pH 7.5, 300 mM NaCl, 1 mM CaCl2, 5 mM DTT; heterodimer to heterotetramer, KD estimated from the proportions of the peaks
[7] = biological target: CaMKIIδ/Ca^2+/CaM complex (human) (UniProt Q13557); assay: as above
[8] = biological target: CaMKIIγ oligomerization domain (human); assay: crystal structure; isolated oligomerization domains of human CaMKIIγ (2.7 Å) and CaMKIIδ (2.8 Å)
[9] = biological target: the molecule itself; assay: as above

CaMKI catalytic domain (human), sequence (Q8IU85 1-333): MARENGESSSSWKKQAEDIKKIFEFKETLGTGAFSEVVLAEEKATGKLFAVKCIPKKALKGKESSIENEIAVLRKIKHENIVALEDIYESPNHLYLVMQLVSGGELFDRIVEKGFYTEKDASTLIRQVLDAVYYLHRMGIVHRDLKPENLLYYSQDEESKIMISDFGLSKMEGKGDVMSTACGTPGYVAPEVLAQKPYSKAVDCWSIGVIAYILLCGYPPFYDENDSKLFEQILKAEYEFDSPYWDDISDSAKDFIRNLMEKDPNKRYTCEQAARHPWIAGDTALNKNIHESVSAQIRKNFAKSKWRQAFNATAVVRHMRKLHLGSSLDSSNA
CaMKIIβ catalytic domain (human), sequence (Q13554 11-302): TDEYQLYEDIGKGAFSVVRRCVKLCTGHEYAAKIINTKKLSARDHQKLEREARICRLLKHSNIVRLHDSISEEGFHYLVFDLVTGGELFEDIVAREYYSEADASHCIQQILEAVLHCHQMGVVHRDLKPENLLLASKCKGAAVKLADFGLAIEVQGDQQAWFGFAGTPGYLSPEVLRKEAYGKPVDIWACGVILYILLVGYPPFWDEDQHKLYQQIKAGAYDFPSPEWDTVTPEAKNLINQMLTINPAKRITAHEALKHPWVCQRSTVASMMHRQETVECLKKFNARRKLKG
CaMKIV catalytic domain (human), sequence (Q16566 15-340): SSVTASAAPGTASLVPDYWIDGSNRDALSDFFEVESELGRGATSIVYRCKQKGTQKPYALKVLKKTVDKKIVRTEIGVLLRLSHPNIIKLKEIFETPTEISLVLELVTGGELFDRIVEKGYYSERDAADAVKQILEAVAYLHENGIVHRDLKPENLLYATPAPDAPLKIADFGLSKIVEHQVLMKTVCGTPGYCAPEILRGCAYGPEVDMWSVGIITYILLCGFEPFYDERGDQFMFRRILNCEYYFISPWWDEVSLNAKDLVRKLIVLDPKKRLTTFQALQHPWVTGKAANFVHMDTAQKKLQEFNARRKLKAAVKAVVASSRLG
CaMKIIγ catalytic and regulatory domain (human), sequence (Q13555 5-317): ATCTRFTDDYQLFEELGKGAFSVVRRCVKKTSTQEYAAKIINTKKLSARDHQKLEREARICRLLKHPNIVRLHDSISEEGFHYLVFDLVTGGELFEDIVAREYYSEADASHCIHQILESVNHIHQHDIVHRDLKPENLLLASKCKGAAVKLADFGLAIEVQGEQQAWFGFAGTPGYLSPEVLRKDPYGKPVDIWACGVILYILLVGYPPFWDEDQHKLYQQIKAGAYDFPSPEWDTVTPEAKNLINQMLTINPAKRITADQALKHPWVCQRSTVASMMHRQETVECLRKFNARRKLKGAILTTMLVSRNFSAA

Which results are given for “calmodulin (Ca^2+/CaM) (from UniProt P0DP23 1-149) (natural protein)”?
dH [1]: 8.6 kcal/mol; stoichiometry N [1]: 0.981; dH [2]: 8.9 kcal/mol; stoichiometry N [2]: 0.922; dH [3]: 12.1 kcal/mol; stoichiometry N [3]: 0.863; dH [4]: -5.8 kcal/mol and -5.1 kcal/mol; stoichiometry N [4]: 0.93; dH [5]: -10.2 kcal/mol; stoichiometry N [5]: 0.83

How did the Kd [6] turn out when “CaMKIIα/Ca^2+/CaM complex (from UniProt Q9UQM7 13-301; P0DP23 1-149)” was run?
The Kd was 120 µM.

With “CaMKIIδ/Ca^2+/CaM complex (from UniProt Q13557 11-335; P0DP23 1-149)” as the molecule, how does the Kd [7] read?
Its Kd is 50 µM.

“CaMKIIγ oligomerization domain (domain or fragment)” was tested. Which stoichiometry N [8] did it give?
The stoichiometry N was 12.

B1: CaMKIIδ oligomerization domain (domain or fragment, human, UniProt Q13557 334-475, looked up)
chain: SNTTIEDEDVKARKQEIIKVTEQLIEAINNGDFEAYTKICDPGLTAFEPEALGNLVEGMDFHRFYFENALSKSNKPIHTIILNPHVHLVGDDAACIAYIRLTQYMDGSGMPKTMQSEETRVWHRRDGKWQNVHFHRSGSPTV
How did the “stoichiometry N” value [9] turn out when B1 was run?
Its value is 14.
